Test results: patent US9012398B2

These substances were tested against human GLP-1 receptor (human) (UniProt P43220).
In the case of “N-ε^20-[2-(2-[2-(2-[2-(2-[4-(17-Carboxyheptadecanoylamino)-4(S)- carboxybutyrylamino]ethoxy)ethoxy]acetylamino)ethoxy]ethoxy)acetyl] [Imidazoylpropionyl^1;Gin^28,Lys^20]exendin-4(1-39)amide (from UniProt P26349) (peptide)”, the GLP1cAMPma (3693) [EC50 (nM)] Mean Value is reported as 2.18 nM.
“N-ε^34-(2-(2-(2-(16-tetrazoylhexadecanoylamino-4(S)- carboxybutyrylamino)ethoxy)ethoxy(acetyl)[Leu^14,Arg^12,27, Lys^34]Exendin-4(1-39)amide (from UniProt P26349) (peptide)” was tested, and the GLP1cAMPma (3693) [EC50 (nM)] Mean Value was 0.61 nM.
Work on “N-ε^14-(2-(2-(2-(2-(2-(2-(4-(Octadecanoylamino)-4(S)- carboxybutyrylamino)ethoxy)ethoxy)acetylamino)ethoxy)ethoxy)acetyl [Arg^12,Lys^14,Val^27,Arg^28]Exendin-4-(1-39)-amide (from UniProt P26349) (peptide)” yielded a GLP1cAMPma (3693) [EC50 (nM)] Mean Value of 0.059 nM.
Work on “N-ε^20-[2-(2-[2-(2-[2-(2-[4-(octadecanoylamino)-4(S)- carboxybutyrylamino]ethoxy)ethoxy]acetylamino)ethoxy]ethoxy)acetyl] [Aib^2,Lys^20,Ala^29,Ser(O-benzyl)^39]Exendin-4-(1-39)-amide (from UniProt P26349) (peptide)” yielded a GLP1cAMPma (3693) [EC50 (nM)] Mean Value of 0.006 nM.
For “N-ε^20-{2-(2-(2-(2-[2-(2-(4-(hexadecanoylamino)-4- carboxybutyrylamino)ethoxy)ethoxy]acetyl)ethoxy)ethoxy)acetyl)}- [Gln^12,27,Leu^14,Lys^20,Gln^28]Exendin-4-amide (from UniProt P26349) (peptide)”, the GLP1cAMPma (3693) [EC50 (nM)] Mean Value was 0.027 nM.
Work on “N-ε^27-(2-(2-(2-(2-(2-(2-(17- carboxyheptadecanoylamino)ethoxy)ethoxy)acetylamino)ethoxy) ethoxy)acetyl)[Leu^14,Arg^12,Lys^27]Exendin-4(1-39)amide (from UniProt P26349) (peptide)” yielded a GLP1cAMPma (3693) [EC50 (nM)] Mean Value of 0.35 nM.
Substance “N-ε^27-(2-(2-(2-(2-(2-(2-(17-carboxyheptadecanoylamino-4(S)- carboxybutyrylamino])ethoxy)ethoxy)acetylamino)ethoxy)ethoxy) acetyl)[Leu^14,Arg^12,Lys^27]Exendin-4(1-39)amide (from UniProt P26349) (peptide)” has a GLP1cAMPma (3693) [EC50 (nM)] Mean Value of 0.52 nM.
With “N-ε^14-(2-(2-(2-(2-(2-(2-(2-(2-(2- (Octadecanoylamino)ethoxy)ethoxy)acetylamino)ethoxy)ethoxy)acetyl- amino)ethoxy)ethoxy)acetyl)[Arg^12,Lys^14,Val^27,Arg^28]Exendin-4-(1-39)- amide (from UniProt P26349) (peptide)” the GLP1cAMPma (3693) [EC50 (nM)] Mean Value was 0.088 nM.
Work on “N-ε^27-(2-(2-(2-(2-(2-(2-(2-(2-(2- (Octadecanoylamino)ethoxy)ethoxy)acetylamino)ethoxy)ethoxy)acetyl- amino)ethoxy)ethoxy)acetyl)[Arg^12,Leu^14,Lys^27,Ala^29]Exendin-4-(1- 39)-amide (from UniProt P26349) (peptide)” yielded a GLP1cAMPma (3693) [EC50 (nM)] Mean Value of 0.08 nM.
For “N-ε^12-[2-(2-[2-(2-[2-(2-[4-(17-carboxyheptadecanoylamino)-4(S)- carboxybutyrylamino]ethoxy)ethoxy]acetylamino)ethoxy]ethoxy)acetyl] [Lys^12,Leu^14,Arg^27,Gln^28]Exendin-4-(1-39)-amide (from UniProt P26349) (peptide)”, the GLP1cAMPma (3693) [EC50 (nM)] Mean Value was 0.22 nM.
“N-ε^34-[2-(2-[2-[4-hexadecanoylamino-4(S)- carboxybutyrylamino]ethoxy]ethoxy)acetyl][Arg^12,27,Leu^14,Lys^34] Exendin-4(1-39)amide (from UniProt P26349) (peptide)” gave a GLP1cAMPma (3693) [EC50 (nM)] Mean Value of 0.012 nM.
“N-ε^32-[2-(2-[2-(2-[2-(2-[2-(2-[2- (Eicosanoylamino)ethoxy]ethoxy)acetylamino]ethoxy)ethoxy] acetylamino)ethoxy]ethoxy)acetyl][Arg^12,28,Leu^14,Val^27,Lys^32] Exendin-4-(1-39)amide (from UniProt P26349) (peptide)” showed a GLP1cAMPma (3693) [EC50 (nM)] Mean Value of 0.27 nM.
For “N-ε^14-(2-(2-2-(2-(2-(4-(hexadecanoylamino)-4-(S)- carboxybytyrylamino)ethoxy)ethoxy)acetylamino)ethoxy)ethoxy)acetyl [Arg^12,Lys^l4,Val^27,Arg^28]Exendin-4-(1-39)-amide (from UniProt P26349) (peptide)”, the GLP1cAMPma (3693) [EC50 (nM)] Mean Value was 0.037 nM.
“N-ε^12-[2-(2-[2-(2-[2-(2-[4-(hexadecanoylamino)-4(S)- carboxybutyrylamino]ethoxy)ethoxy]acetylamino)ethoxy]ethoxy)acetyl] [Lys^12,Leu^14,Arg^27,Gln^28]Exendin-4-(1-39)-amide (from UniProt P26349) (peptide)” gave a GLP1cAMPma (3693) [EC50 (nM)] Mean Value of 0.006 nM.
For “N-ε^34-(2-(2-(2-(17-carboxyheptadecanoylamino)ethoxy)ethoxy)acetyl) [Leu^14,Arg^12,27,Lys^34]Exendin-4(1-39)amide (from UniProt P26349) (peptide)”, the GLP1cAMPma (3693) [EC50 (nM)] Mean Value was 0.44 nM.
“N-ε^20-2-(2-(2-(2-(2-(2-(4-(Hexadecanoylamino)-4(S)- carboxybutyrylamino)ethoxy)ethoxy)acetylamino)ethoxy) ethoxy)acetyl[Arg^12,27,Leu^14,Lys^20,Gln^28]Exendin-4-(1-39)-peptide amide (from UniProt P26349)” showed a GLP1cAMPma (3693) [EC50 (nM)] Mean Value of 0.033 nM.
